B1: CLPTM1 (parent)
chain: LGCYAVYSLLYLEHKGWYSWVLSM
B2: CIB1 (parent)
chain: DLSRLVNCLTGEGEDTRLSASEMK

Variants of: B1
Experiment: protein stability index of a GFP-peptide fusion (GPS, HEK-293T) (PSI 1-6); higher = more stable
Conditions: c terminus: a fixed tail appended
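Note: lentivirally expressed fusions sorted by FACS into six bins by GFP to DsRed ratio, PSI derived from sequencing read proportions per bin multiplied by bin number.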

Variant | protein stability index
LGCYAVYSLLYLEHKRWYSWVLSM | 1.42
LGCYAVYSLLYLEHKEWYSWVLSM | 2.88
LGCYAVYSLLYLEHKPWYSWVLSM | 2.75
LGCYAVYSLLYLEHKHWYSWVLSM | 3.98
LGCYAVYSLLYLEHKVWYSWVLSM | 2.84
LGCYAVYSLLYLEHKNWYSWVLSM | 2.7
LGCYAVYSLLYLEHKFWYSWVLSM | 2
LGCYAVYSLLYLEHKMWYSWVLSM | 2.67
LGCYAVYSLLYLEHKTWYSWVLSM | 2.75
LGCYAVYSLLYLEHKGWYSWVCSM | 4.24
LGCYAVYSLLYLEHKGWYSWVASM | 3.33
LGCYAVYSLLYLEHKGWYSWVMSM | 2.11
LGCYAVYSLLYLEHKGWYSWVGSM | 1.72
LGCYAVYSLLYLEHKGWYSWVFSM | 3.46
LGCYAVYSLLYLEHKGWYSWVWSM | 2.58
LGCYAVYSLLYLEHKGWYSWVPSM | 3.42
LGCYAVYSLLYLEHKGWYSWVSSM | 3.49
LGCYAVYSLLYLEHKGWYSWVKSM | 2.01
LGCYAVYSLLYLEHKGWYSWVTSM | 1.98
LGCYAVYSLLYLEHKGWYSWVQSM | 2.18
LGCYAVYSLLYLEHKGWYSWVESM | 3.17
LGCYAVYSLLYLEHKGWYSWVYSM | 3.5
LGCYAVYSLLYLEHKGWYSWVISM | 3.34

Variant | protein stability index
LGCYAVYSLLYLEHKGWYSWVRSM | 2.45
LGCYAVYSLLYLEHKGFYSWVLSM | 1.55
LGCYAVYSLLYLEHKGCYSWVLSM | 2.36
LGCYAVYSLLYLEHKGKYSWVLSM | 3.85
LGCYAVYSLLYLEHKGTYSWVLSM | 3.28
LGCYAVYSLLYLEHKGLYSWVLSM | 2.96
LGCYAVYSLLYLEHKGEYSWVLSM | 2.81
LGCYAVYSLLYLEHKGNYSWVLSM | 4.13
LGCYAVYSLLYLEHKGPYSWVLSM | 2.44
LGCYAVYSLLYLEHKGIYSWVLSM | 2.71
LGCYAVYSLLYLEHKGRYSWVLSM | 2.16
LGCYAVYSLLYLEHKGYYSWVLSM | 2.38
LGCYAVYSLLYLEHKGGYSWVLSM | 2.14
LGCYAVYSLLYLEHKGDYSWVLSM | 2.76
LGCYAVYSLLYLEHKGAYSWVLSM | 3.3
LGCYAVYSLLYLEHKGWYRWVLSM | 1.76
LGCYAVYSLLYLEHKGWYAWVLSM | 4.22
LGCYAVYSLLYLEHKGWYNWVLSM | 3.88
LGCYAVYSLLYLEHKGWYVWVLSM | 1.92
LGCYAVYSLLYLEHKGWYWWVLSM | 2.66
LGCYAVYSLLYLEHKGWYEWVLSM | 2.27
LGCYAVYSLLYLEHKGWYCWVLSM | 3.08
LGCYAVYSLLYLEHKGWYGWVLSM | 2.71

Variant | protein stability index
LGCYAVYSLLYLEHKGWYTWVLSM | 3.99
LGCYAVYSLLYLEHKGWYYWVLSM | 2.62
LGCYAVYSLLYLEHKGWYFWVLSM | 2.47
LGCYAVYSLLYLEHKGWYIWVLSM | 3.66
LGCYAVYSLLYLEHKGWYPWVLSM | 2.93
LGCYAVYSLLYLEHKGWYQWVLSM | 3.63
LGCYAVYSLLYLEHKGWYKWVLSM | 3.27
LGCYAVYSLLYLEHKGWYSWILSM | 1.96
LGCYAVYSLLYLEHKGWYSWELSM | 3.46
LGCYAVYSLLYLEHKGWYSWHLSM | 2.45
LGCYAVYSLLYLEHKGWYSWFLSM | 2.12
LGCYAVYSLLYLEHKGWYSWPLSM | 3.65
LGCYAVYSLLYLEHKGWYSWRLSM | 1.99
LGCYAVYSLLYLEHKGWYSWGLSM | 2.62
LGCYAVYSLLYLEHKGWYSWCLSM | 4.16
LGCYAVYSLLYLEHKGWYSWYLSM | 2.63
LGCYAVYSLLYLEHKGWYSWDLSM | 1.56
LGCYAVYSLLYLEHKGWYSWWLSM | 3.42
LGCYAVYSLLYLEHKGWYSWLLSM | 2.77
LGCYAVYSLLYLEHKGWYSWALSM | 2.45
LGCYAVYSLLYLEHKGWYSWMLSM | 2.45
LGCYAVYSLLYLEHKGWYSWTLSM | 2.31
LGCYAVYSLLYLEHKGWYSWNLSM | 3.02

Variant | protein stability index
LGCYAVYSLLYLEHKGWYSWKLSM | 2.12
LGCYAVYSLLYLEHKGWYSWSLSM | 3.6
LGCYAVYSLLYLEHKGWYSKVLSM | 2.65
LGCYAVYSLLYLEHKGWYSTVLSM | 2.45
LGCYAVYSLLYLEHKGWYSFVLSM | 1.72
LGCYAVYSLLYLEHKGWYSGVLSM | 2.21
LGCYAVYSLLYLEHKGWYSPVLSM | 3.37
LGCYAVYSLLYLEHKGWYSEVLSM | 3.54
LGCYAVYSLLYLEHKGWYSVVLSM | 3.55
LGCYAVYSLLYLEHKGWYSRVLSM | 2.84
LGCYAVYSLLYLEHKGWYSCVLSM | 3.98
LGCYAVYSLLYLEHKGWYSSVLSM | 2.21
LGCYAVYSLLYLEHKGWYSQVLSM | 2.07
LGCYAVYSLLYLEHKGWYSIVLSM | 3.33
LGCYAVYSLLYLEHKGWYSHVLSM | 1.87
LGCYAVYSLLYLEHKGWYSDVLSM | 2.14
LGCYAVYSLLYLEHKGWYSMVLSM | 3.21
LGCYAVYSLLYLEHKGWYSNVLSM | 3.58
LGCYAVYSLLYLEHKGWYSLVLSM | 2.91
LGCYAVYSLLYLEHKGWYSWVLHM | 2.63
LGCYAVYSLLYLEHKGWYSWVLRM | 2.26
LGCYAVYSLLYLEHKGWYSWVLQM | 3.11
LGCYAVYSLLYLEHKGWYSWVLVM | 1.82

Variant | protein stability index
LGCYAVYSLLYLEHKGWYSWVLMM | 3.15
LGCYAVYSLLYLEHKGWYSWVLFM | 2.11
LGCYAVYSLLYLEHKGWYSWVLWM | 3.03
LGCYAVYSLLYLEHKGWYSWVLIM | 3.17
LGCYAVYSLLYLEHKGWYSWVLLM | 2.41
LGCYAVYSLLYLEHKGWYSWVLNM | 2.27
LGCYAVYSLLYLEHKGWYSWVLPM | 4.18
LGCYAVYSLLYLEHKGWYSWVLYM | 2.49
LGCYAVYSLLYLEHKGWYSWVLCM | 3.78
LGCYAVYSLLYLEHKGWYSWVLTM | 1.72
LGCYAVYSLLYLEHKGWYSWVLGM | 2.17
LGCYAVYSLLYLEHKGWHSWVLSM | 2.44
LGCYAVYSLLYLEHKGWMSWVLSM | 2.61
LGCYAVYSLLYLEHKGWNSWVLSM | 3.45
LGCYAVYSLLYLEHKGWFSWVLSM | 2.61
LGCYAVYSLLYLEHKGWRSWVLSM | 3.76
LGCYAVYSLLYLEHKGWPSWVLSM | 3.5
LGCYAVYSLLYLEHKGWWSWVLSM | 3.03
LGCYAVYSLLYLEHKGWGSWVLSM | 2.21
LGCYAVYSLLYLEHKGWISWVLSM | 3.27
LGCYAVYSLLYLEHKGWLSWVLSM | 2.48
LGCYAVYSLLYLEHKGWCSWVLSM | 1.27
LGCYAVYSLLYLEHKGWVSWVLSM | 2.95

Variant | protein stability index
LGCYAVYSLLYLEHKGWDSWVLSM | 3.53
LGCYAVYSLLYLEHKGWKSWVLSM | 2.08
LGCYAVYSLLYLEHKGWQSWVLSM | 2.56
LGCYAVYSLLYLEHKGWYSWVLSW | 3.77
LGCYAVYSLLYLEHKGWYSWVLSL | 2.6
LGCYAVYSLLYLEHKGWYSWVLSK | 3.6
LGCYAVYSLLYLEHKGWYSWVLSD | 2.05
LGCYAVYSLLYLEHKGWYSWVLSI | 2.67
LGCYAVYSLLYLEHKGWYSWVLSS | 2.46
LGCYAVYSLLYLEHKGWYSWVLSN | 2.39
LGCYAVYSLLYLEHKGWYSWVLST | 2.61
LGCYAVYSLLYLEHKGWYSWVLSC | 4.42
LGCYAVYSLLYLEHKGWYSWVLSR | 2.3
LGCYAVYSLLYLEHKGWYSWVLSF | 4.41
LGCYAVYSLLYLEHKGWYSWVLSV | 3.57
LGCYAVYSLLYLEHKGWYSWVLSQ | 3.62
LGCYAVYSLLYLEHKGWYSWVLSE | 5.08
LGCYAVYSLLYLEHKGWYSWVLSH | 3.76
LGCYAVYSLLYLEHKGWYSWVLSP | 3.83
LGCYAVYSLLYLEHKGWYSWVLSG | 4.14
LGCYAVYSLLYLEHKGWYSWVLSA | 2.39
LGCYAVYSLLYLEHKGWYSWVLSY | 2.41

Variants of: B2
Experiment: as above
Conditions: c terminus: a fixed tail appended

Variant | protein stability index
DISRLVNCLTGEGEDTRLSASEMK | 2.82
DSSRLVNCLTGEGEDTRLSASEMK | 5
DDSRLVNCLTGEGEDTRLSASEMK | 4.32
DGSRLVNCLTGEGEDTRLSASEMK | 5.22
DYSRLVNCLTGEGEDTRLSASEMK | 3.82
DKSRLVNCLTGEGEDTRLSASEMK | 4.56
DPSRLVNCLTGEGEDTRLSASEMK | 5.35
DASRLVNCLTGEGEDTRLSASEMK | 4.39
DWSRLVNCLTGEGEDTRLSASEMK | 2.89
DCSRLVNCLTGEGEDTRLSASEMK | 3.87
DFSRLVNCLTGEGEDTRLSASEMK | 3.85
DMSRLVNCLTGEGEDTRLSASEMK | 5.13
DNSRLVNCLTGEGEDTRLSASEMK | 4.22
DESRLVNCLTGEGEDTRLSASEMK | 5.67
DHSRLVNCLTGEGEDTRLSASEMK | 5.29
DQSRLVNCLTGEGEDTRLSASEMK | 4.6
DLSCLVNCLTGEGEDTRLSASEMK | 3.65
DLSFLVNCLTGEGEDTRLSASEMK | 3.88
DLSALVNCLTGEGEDTRLSASEMK | 3.8
DLSELVNCLTGEGEDTRLSASEMK | 3.68
RLSRLVNCLTGEGEDTRLSASEMK | 3.68
QLSRLVNCLTGEGEDTRLSASEMK | 3.56
CLSRLVNCLTGEGEDTRLSASEMK | 2.65
PLSRLVNCLTGEGEDTRLSASEMK | 4.33
YLSRLVNCLTGEGEDTRLSASEMK | 2.43
ALSRLVNCLTGEGEDTRLSASEMK | 2.84

Variant | protein stability index
MLSRLVNCLTGEGEDTRLSASEMK | 2.49
HLSRLVNCLTGEGEDTRLSASEMK | 3.25
LLSRLVNCLTGEGEDTRLSASEMK | 2.04
TLSRLVNCLTGEGEDTRLSASEMK | 2.06
FLSRLVNCLTGEGEDTRLSASEMK | 2.77
KLSRLVNCLTGEGEDTRLSASEMK | 4.18
GLSRLVNCLTGEGEDTRLSASEMK | 3.69
VLSRLVNCLTGEGEDTRLSASEMK | 1.95
ILSRLVNCLTGEGEDTRLSASEMK | 2.3
NLSRLVNCLTGEGEDTRLSASEMK | 2.89
SLSRLVNCLTGEGEDTRLSASEMK | 2.8
DLGRLVNCLTGEGEDTRLSASEMK | 3.72
DLERLVNCLTGEGEDTRLSASEMK | 2.78
DLIRLVNCLTGEGEDTRLSASEMK | 1.2
DLNRLVNCLTGEGEDTRLSASEMK | 2.39
DLRRLVNCLTGEGEDTRLSASEMK | 2.43
DLQRLVNCLTGEGEDTRLSASEMK | 2.84
DLCRLVNCLTGEGEDTRLSASEMK | 2.98
DLTRLVNCLTGEGEDTRLSASEMK | 2.32
DLLRLVNCLTGEGEDTRLSASEMK | 2.2
DLFRLVNCLTGEGEDTRLSASEMK | 2.9
DLWRLVNCLTGEGEDTRLSASEMK | 1.38
DLYRLVNCLTGEGEDTRLSASEMK | 2.79
DLMRLVNCLTGEGEDTRLSASEMK | 3.1
DLKRLVNCLTGEGEDTRLSASEMK | 3.27

— the supplement of paper PMC10567573
